Data taken from publication PMC9482650, “Quantitative fragmentomics allow affinity mapping of interactomes” (Nature Communications, 2022).

T1: APBA1_1, Q02410
T1 sequence (Q02410 651-752, limits assumed, looked up): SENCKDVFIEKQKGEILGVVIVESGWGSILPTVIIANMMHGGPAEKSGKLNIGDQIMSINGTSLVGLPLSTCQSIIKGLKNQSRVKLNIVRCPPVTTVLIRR

T2: APBA1_2, Q02410
T2 sequence (Q02410 742-832, limits assumed, looked up): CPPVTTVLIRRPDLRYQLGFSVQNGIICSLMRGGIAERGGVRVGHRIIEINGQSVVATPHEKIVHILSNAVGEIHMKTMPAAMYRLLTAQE

T3: APBA2_2, Q99767
T3 sequence (Q99767 654-744, limits assumed, looked up): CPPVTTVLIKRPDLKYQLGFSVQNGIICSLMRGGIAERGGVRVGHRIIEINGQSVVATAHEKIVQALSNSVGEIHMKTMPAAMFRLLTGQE

T4: FRMPD1, Q5SYB0
T4 sequence (Q5SYB0 52-145, limits assumed, looked up): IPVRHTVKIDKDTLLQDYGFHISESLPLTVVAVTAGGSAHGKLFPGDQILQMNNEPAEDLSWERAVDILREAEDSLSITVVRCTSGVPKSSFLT

T5: GRIP1_4, Q9Y3R0
T5 sequence (Q9Y3R0 467-571, limits assumed, looked up): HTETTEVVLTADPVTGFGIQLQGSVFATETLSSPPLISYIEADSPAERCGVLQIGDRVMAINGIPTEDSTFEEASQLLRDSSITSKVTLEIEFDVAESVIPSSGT

T6: GRIP1_5, Q9Y3R0
T6 sequence (Q9Y3R0 568-668, limits assumed, looked up): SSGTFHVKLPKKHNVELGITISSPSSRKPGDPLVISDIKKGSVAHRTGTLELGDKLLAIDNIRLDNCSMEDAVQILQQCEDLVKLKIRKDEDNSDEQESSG

T7: HTRA4, P83105
T7 sequence (P83105 378-476, limits assumed, looked up): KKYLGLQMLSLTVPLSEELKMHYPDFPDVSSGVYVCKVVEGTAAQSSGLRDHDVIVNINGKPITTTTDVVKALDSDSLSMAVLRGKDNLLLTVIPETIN

T8: LIN7B, Q9HAP6
T8 sequence (Q9HAP6 88-185, limits assumed, looked up): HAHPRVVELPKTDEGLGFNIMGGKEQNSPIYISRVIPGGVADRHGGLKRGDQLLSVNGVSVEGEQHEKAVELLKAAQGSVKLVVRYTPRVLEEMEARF

T9: NHERF3_1, Q5T2W1
T9 sequence (Q5T2W1 4-100, limits assumed, looked up): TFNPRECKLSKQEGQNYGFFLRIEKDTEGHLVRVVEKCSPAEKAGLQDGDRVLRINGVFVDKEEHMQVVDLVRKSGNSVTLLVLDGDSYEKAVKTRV

T10: NHERF3_3, Q5T2W1
T10 sequence (Q5T2W1 238-333, limits assumed, looked up): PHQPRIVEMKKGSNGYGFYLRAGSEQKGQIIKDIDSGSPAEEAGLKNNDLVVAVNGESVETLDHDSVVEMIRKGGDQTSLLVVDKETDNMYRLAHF

T11: RAPGEF6, Q8TEU7
T11 sequence (Q8TEU7 525-625, limits assumed, looked up): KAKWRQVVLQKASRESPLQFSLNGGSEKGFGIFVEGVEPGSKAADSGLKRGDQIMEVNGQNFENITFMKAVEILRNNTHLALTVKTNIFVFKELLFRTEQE

T12: SNTB1, Q13884
T12 sequence (Q13884 107-205, limits assumed, looked up): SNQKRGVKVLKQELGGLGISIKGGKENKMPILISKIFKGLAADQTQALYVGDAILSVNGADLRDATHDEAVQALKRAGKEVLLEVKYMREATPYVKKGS


Experiments:
Assay in all cases: holdup assay
Set-up in all cases: key: below the threshold = too weak to quantify, mostly under pKd 3.1 to 4
Conditions in all cases: plain residues with an end cap or a label only (N-terminal biotin on a linker: ado-ado)
APBA1_1, Q02410 = target: T1, APBA1_1, Q02410
APBA1_2, Q02410 = target: T2, APBA1_2, Q02410
APBA2_2, Q99767 = target: T3, APBA2_2, Q99767
DLG1_1, Q12959 = target: DLG1_1, Q12959
DLG2_3, Q15700 = target: DLG2_3, Q15700
DLG4_1, P78352 = target: DLG4_1, P78352
FRMPD1, Q5SYB0 = target: T4, FRMPD1, Q5SYB0
FRMPD3, Q5JV73 = target: FRMPD3, Q5JV73
GOPC, Q9HD26 = target: GOPC, Q9HD26
GORASP2, Q9H8Y8 = target: GORASP2, Q9H8Y8
GRASP, Q7Z6J2 = target: GRASP, Q7Z6J2
GRIP1_4, Q9Y3R0 = target: T5, GRIP1_4, Q9Y3R0
GRIP1_5, Q9Y3R0 = target: T6, GRIP1_5, Q9Y3R0
GRIP2_6, Q9C0E4 = target: GRIP2_6, Q9C0E4
HTRA4, P83105 = target: T7, HTRA4, P83105
Inadl_6, Q8NI35 = target: Inadl_6, Q8NI35
LAP2, Q96RT1 = target: LAP2, Q96RT1
LDB3, O75112 = target: LDB3, O75112
LIN7B, Q9HAP6 = target: T8, LIN7B, Q9HAP6
MAGI2_2, Q86UL8 = target: MAGI2_2, Q86UL8
MAST1, Q9Y2H9 = target: MAST1, Q9Y2H9
NHERF3_1, Q5T2W1 = target: T9, NHERF3_1, Q5T2W1
NHERF3_3, Q5T2W1 = target: T10, NHERF3_3, Q5T2W1
PARD3_3, Q8TEW0 = target: PARD3_3, Q8TEW0
RAPGEF6, Q8TEU7 = target: T11, RAPGEF6, Q8TEU7
SNTB1, Q13884 = target: T12, SNTB1, Q13884

Sequence of PARD3_3, Q8TEW0 (Q8TEW0 582-685): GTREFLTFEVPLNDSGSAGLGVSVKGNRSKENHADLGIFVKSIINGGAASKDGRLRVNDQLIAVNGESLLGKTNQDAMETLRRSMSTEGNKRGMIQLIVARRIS
Sequence of GRASP, Q7Z6J2 (Q7Z6J2 96-193): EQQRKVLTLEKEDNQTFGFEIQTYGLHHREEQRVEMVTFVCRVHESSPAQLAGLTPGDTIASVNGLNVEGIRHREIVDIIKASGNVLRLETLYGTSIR
Sequence of GRIP2_6, Q9C0E4 (Q9C0E4 648-740): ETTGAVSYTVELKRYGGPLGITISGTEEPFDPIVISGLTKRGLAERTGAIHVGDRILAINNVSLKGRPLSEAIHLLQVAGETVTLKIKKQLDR
Sequence of DLG4_1, P78352 (P78352 62-152): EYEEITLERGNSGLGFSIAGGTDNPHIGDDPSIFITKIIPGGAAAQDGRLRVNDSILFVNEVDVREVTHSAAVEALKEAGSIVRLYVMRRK
Sequence of LDB3, O75112 (O75112 1-94): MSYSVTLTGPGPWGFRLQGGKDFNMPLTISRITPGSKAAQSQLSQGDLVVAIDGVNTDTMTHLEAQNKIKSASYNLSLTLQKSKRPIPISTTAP
Sequence of Inadl_6, Q8NI35 (Q8NI35 1058-1167): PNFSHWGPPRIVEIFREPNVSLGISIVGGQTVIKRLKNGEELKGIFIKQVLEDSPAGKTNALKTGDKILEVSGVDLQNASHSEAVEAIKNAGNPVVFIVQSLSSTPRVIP
Sequence of MAGI2_2, Q86UL8 (Q86UL8 410-522): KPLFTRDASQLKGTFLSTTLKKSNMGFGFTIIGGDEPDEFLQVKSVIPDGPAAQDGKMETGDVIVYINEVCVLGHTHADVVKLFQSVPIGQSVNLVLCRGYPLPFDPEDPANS
Sequence of FRMPD3, Q5JV73 (Q5JV73 12-100): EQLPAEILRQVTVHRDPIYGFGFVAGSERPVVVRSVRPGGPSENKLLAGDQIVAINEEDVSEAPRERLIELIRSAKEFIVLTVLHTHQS
Sequence of MAST1, Q9Y2H9 (Q9Y2H9 962-1065): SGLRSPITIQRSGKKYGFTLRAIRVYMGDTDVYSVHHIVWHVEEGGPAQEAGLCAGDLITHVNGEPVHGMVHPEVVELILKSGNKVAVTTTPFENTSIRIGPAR
Sequence of LAP2, Q96RT1 (Q96RT1 other isoform, or with tags, fused parts or gaps): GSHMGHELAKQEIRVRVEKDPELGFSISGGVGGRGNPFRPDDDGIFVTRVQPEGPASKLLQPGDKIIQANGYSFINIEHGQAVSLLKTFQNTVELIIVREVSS

Row | pKd (APBA1_1, Q02410) | pKd (APBA1_2, Q02410) | pKd (APBA2_2, Q99767) | pKd (DLG1_1, Q12959) | pKd (DLG2_3, Q15700) | pKd (DLG4_1, P78352) | pKd (FRMPD1, Q5SYB0) | pKd (FRMPD3, Q5JV73) | pKd (GOPC, Q9HD26) | pKd (GORASP2, Q9H8Y8) | pKd (GRASP, Q7Z6J2) | pKd (GRIP1_4, Q9Y3R0) | pKd (GRIP1_5, Q9Y3R0) | pKd (GRIP2_6, Q9C0E4) | pKd (HTRA4, P83105) | pKd (Inadl_6, Q8NI35) | pKd (LAP2, Q96RT1) | pKd (LDB3, O75112) | pKd (LIN7B, Q9HAP6) | pKd (MAGI2_2, Q86UL8) | Binder | further results
1 | below the threshold | below the threshold | below the threshold | below the threshold | below the threshold | below the threshold | below the threshold | below the threshold | below the threshold | below the threshold | below the threshold | below the threshold | below the threshold | below the threshold | below the threshold | below the threshold | below the threshold | below the threshold | 3.58 | below the threshold | FEEEAEEEVA [TUBB4B, P68371] | pKd (MAST1, Q9Y2H9): below the threshold; pKd (NHERF3_1, Q5T2W1): below the threshold; pKd (NHERF3_3, Q5T2W1): below the threshold; pKd (PARD3_3, Q8TEW0): below the threshold; pKd (RAPGEF6, Q8TEU7): below the threshold; pKd (SNTB1, Q13884): below the threshold
2 | below the threshold | below the threshold | below the threshold | below the threshold | 3.58 | below the threshold | below the threshold | below the threshold | below the threshold | below the threshold | below the threshold | below the threshold | below the threshold | 3.47 | 3.75 | below the threshold | below the threshold | below the threshold | 3.72 | below the threshold | PDGEMMEVLI [AMOTL1, Q8IY63] | pKd (MAST1, Q9Y2H9): 3.71; pKd (NHERF3_1, Q5T2W1): 4.05; pKd (NHERF3_3, Q5T2W1): below the threshold; pKd (PARD3_3, Q8TEW0): 5.29; pKd (RAPGEF6, Q8TEU7): below the threshold; pKd (SNTB1, Q13884): below the threshold
3 | below the threshold | 3.77 | below the threshold | 5.24 | 4.92 | 5.06 | below the threshold | below the threshold | 4.9 | 5.53 | 4.57 | below the threshold | below the threshold | below the threshold | 4.5 | 3.89 | 3.87 | below the threshold | 4.16 | 5.14 | REVVMRVTTV [MARCHF9, Q86YJ5] | pKd (MAST1, Q9Y2H9): 4.65; pKd (NHERF3_1, Q5T2W1): below the threshold; pKd (NHERF3_3, Q5T2W1): below the threshold; pKd (PARD3_3, Q8TEW0): below the threshold; pKd (RAPGEF6, Q8TEU7): below the threshold; pKd (SNTB1, Q13884): 5.37
4 | below the threshold | below the threshold | below the threshold | 4.44 | 3.8 | 4.58 | below the threshold | below the threshold | 3.92 | below the threshold | 4.37 | below the threshold | below the threshold | below the threshold | 4.11 | below the threshold | below the threshold | below the threshold | below the threshold | 4.51 | VISERNSTTV [C3AR1, Q16581] | pKd (MAST1, Q9Y2H9): 3.74; pKd (NHERF3_1, Q5T2W1): below the threshold; pKd (NHERF3_3, Q5T2W1): below the threshold; pKd (PARD3_3, Q8TEW0): below the threshold; pKd (RAPGEF6, Q8TEU7): below the threshold; pKd (SNTB1, Q13884): 3.77
5 | below the threshold | below the threshold | below the threshold | 3.84 | below the threshold | 4.02 | below the threshold | below the threshold | 3.61 | below the threshold | below the threshold | below the threshold | below the threshold | below the threshold | below the threshold | below the threshold | below the threshold | below the threshold | below the threshold | 4.23 | WRSKRTDTLL [RAMP3, O60896] | pKd (MAST1, Q9Y2H9): 3.84; pKd (NHERF3_1, Q5T2W1): 5.16; pKd (NHERF3_3, Q5T2W1): 3.48; pKd (PARD3_3, Q8TEW0): 3.48; pKd (RAPGEF6, Q8TEU7): below the threshold; pKd (SNTB1, Q13884): below the threshold
